Experiments:
monoclonal antibody 16C7 = test: ELISA competition: shed CA 125/O772P at 25-fold excess against 16C7 binding to plate-bound O772P 3-repeat
[1] = target: monoclonal antibody 725.1; test: ELISA competition: shed CA 125/O772P at 25-fold excess against 725.1 binding to plate-bound O772P 3-repeat
monoclonal antibody 7A11 = test: ELISA competition: shed CA 125/O772P at 25-fold excess against 7A11 binding to plate-bound O772P 3-repeat
[2] = target: monoclonal antibody 446.1; test: ELISA competition: shed CA 125/O772P at 25-fold excess against 446.1 binding to plate-bound O772P 3-repeat
M11 = test: flow cytometry competition (representative plot): shed CA 125/O772P against M11 binding to OVCAR-3 cells
monoclonal antibody 8G9 = test: ELISA competition: shed CA 125/O772P at 25-fold excess against 8G9 binding to plate-bound O772P 3-repeat
monoclonal antibody 16H9 = test: ELISA competition: shed CA 125/O772P at 25-fold excess against 16H9 binding to plate-bound O772P 3-repeat
monoclonal antibody 7G10 = test: ELISA competition: shed CA 125/O772P at 25-fold excess against 7G10 binding to plate-bound O772P 3-repeat
[3] = target: monoclonal antibody 117.1; test: flow cytometry competition (representative plot): shed CA 125/O772P against 117.1 binding to OVCAR-3 cells
[4] = target: monoclonal antibody 325.1; test: ELISA competition: shed CA 125/O772P at 25-fold excess against 325.1 binding to plate-bound O772P 3-repeat
[5] = target: monoclonal antibody 501.1; test: ELISA competition: shed CA 125/O772P at 25-fold w/w excess against antibody binding to plate-bound O772P 3-repeat
[6] = target: monoclonal antibody 776.1; test: as above
OC125 = test: as above
[7] = target: monoclonal antibody 368.1; test: as above
[8] = target: monoclonal antibody 117.1; test: as above
monoclonal antibody 7F10 = test: ELISA competition: shed CA 125/O772P at 25-fold excess against 7F10 binding to plate-bound O772P 3-repeat
monoclonal antibody 15C9 = test: ELISA competition: shed CA 125/O772P at 25-fold excess against 15C9 binding to plate-bound O772P 3-repeat
monoclonal antibody 7H1 = test: ELISA competition: shed CA 125/O772P at 25-fold excess against 7H1 binding to plate-bound O772P 3-repeat
[9] = target: monoclonal antibody 633.1; test: ELISA competition: shed CA 125/O772P at 25-fold excess against 633.1 binding to plate-bound O772P 3-repeat
monoclonal antibody 4E7 = test: ELISA competition: shed CA 125/O772P at 25-fold excess against 4E7 binding to plate-bound O772P 3-repeat
[10] = target: monoclonal antibody 621.1; test: ELISA competition: shed CA 125/O772P at 25-fold excess against 621.1 binding to plate-bound O772P 3-repeat
monoclonal antibody 8E3 = test: ELISA competition: shed CA 125/O772P at 25-fold excess against 8E3 binding to plate-bound O772P 3-repeat
monoclonal antibody 8C3 = test: ELISA competition: shed CA 125/O772P at 25-fold excess against 8C3 binding to plate-bound O772P 3-repeat
monoclonal antibody 8A1 = test: ELISA competition: shed CA 125/O772P at 25-fold excess against 8A1 binding to plate-bound O772P 3-repeat
monoclonal antibody 8B5 = test: ELISA competition: shed CA 125/O772P at 25-fold excess against 8B5 binding to plate-bound O772P 3-repeat
monoclonal antibody 7C6 = test: ELISA competition: shed CA 125/O772P at 25-fold excess against 7C6 binding to plate-bound O772P 3-repeat
[11] = target: monoclonal antibody 654.1; test: ELISA competition: shed CA 125/O772P at 25-fold excess against 654.1 binding to plate-bound O772P 3-repeat

Sequence of monoclonal antibody 117.1 (chain, as listed by the source, chain 1 of 2): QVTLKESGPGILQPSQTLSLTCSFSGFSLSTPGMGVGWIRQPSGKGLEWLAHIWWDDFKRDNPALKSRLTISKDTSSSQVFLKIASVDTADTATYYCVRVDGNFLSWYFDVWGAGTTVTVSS
Sequence of monoclonal antibody 117.1 (chain, as listed by the source, chain 2 of 2): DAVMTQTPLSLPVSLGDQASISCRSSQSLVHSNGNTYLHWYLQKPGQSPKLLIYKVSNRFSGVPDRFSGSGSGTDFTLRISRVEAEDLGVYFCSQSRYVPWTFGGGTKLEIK
Sequence of monoclonal antibody 368.1 (chain, as listed by the source, chain 1 of 2): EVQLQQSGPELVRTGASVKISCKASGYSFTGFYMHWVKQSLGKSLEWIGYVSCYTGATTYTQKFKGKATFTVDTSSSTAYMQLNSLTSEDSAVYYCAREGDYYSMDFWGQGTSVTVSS
Sequence of monoclonal antibody 368.1 (chain, as listed by the source, chain 2 of 2): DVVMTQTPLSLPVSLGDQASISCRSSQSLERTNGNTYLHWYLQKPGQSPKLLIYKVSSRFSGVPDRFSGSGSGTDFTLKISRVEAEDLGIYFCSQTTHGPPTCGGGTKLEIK
Sequence of monoclonal antibody 501.1 (chain, as listed by the source, chain 1 of 2): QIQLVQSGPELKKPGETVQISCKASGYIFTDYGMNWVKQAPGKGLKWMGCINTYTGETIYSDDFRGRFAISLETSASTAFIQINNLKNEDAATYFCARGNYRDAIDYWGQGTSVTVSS
Sequence of monoclonal antibody 501.1 (chain, as listed by the source, chain 2 of 2): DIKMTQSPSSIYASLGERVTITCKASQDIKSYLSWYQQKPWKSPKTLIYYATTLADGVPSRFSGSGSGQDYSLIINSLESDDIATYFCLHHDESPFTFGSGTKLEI
Sequence of monoclonal antibody 16H9 (chain, as listed by the source, chain 1 of 2): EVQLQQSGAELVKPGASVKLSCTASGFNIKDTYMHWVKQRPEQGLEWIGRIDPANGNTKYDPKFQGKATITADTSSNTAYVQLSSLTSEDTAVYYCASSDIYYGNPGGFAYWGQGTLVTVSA
Sequence of monoclonal antibody 16H9 (chain, as listed by the source, chain 2 of 2): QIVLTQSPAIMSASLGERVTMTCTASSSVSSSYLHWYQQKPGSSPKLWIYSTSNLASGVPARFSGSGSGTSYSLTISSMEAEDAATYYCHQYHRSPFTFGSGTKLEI
Sequence of monoclonal antibody 725.1 (chain, as listed by the source, chain 1 of 2): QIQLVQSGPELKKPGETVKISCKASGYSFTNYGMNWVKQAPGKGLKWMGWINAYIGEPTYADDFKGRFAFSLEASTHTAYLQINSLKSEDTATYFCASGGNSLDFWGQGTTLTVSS
Sequence of monoclonal antibody 725.1 (chain, as listed by the source, chain 2 of 2): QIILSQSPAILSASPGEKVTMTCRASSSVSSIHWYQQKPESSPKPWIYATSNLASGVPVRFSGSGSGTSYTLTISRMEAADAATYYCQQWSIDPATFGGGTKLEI
Sequence of monoclonal antibody 776.1 (chain, as listed by the source, chain 1 of 2): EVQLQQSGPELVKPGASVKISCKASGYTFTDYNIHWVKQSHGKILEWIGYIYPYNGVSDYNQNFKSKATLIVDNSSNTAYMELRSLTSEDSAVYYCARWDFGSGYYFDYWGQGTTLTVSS
Sequence of monoclonal antibody 776.1 (chain, as listed by the source, chain 2 of 2): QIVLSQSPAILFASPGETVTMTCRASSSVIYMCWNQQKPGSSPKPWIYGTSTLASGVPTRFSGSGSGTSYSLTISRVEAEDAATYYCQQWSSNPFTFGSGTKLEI
Sequence of OC125 (chain, as listed by the source, chain 1 of 2): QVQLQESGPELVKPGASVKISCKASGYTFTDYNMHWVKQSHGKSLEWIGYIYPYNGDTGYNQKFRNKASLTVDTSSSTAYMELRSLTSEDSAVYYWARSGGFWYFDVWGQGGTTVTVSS
Sequence of OC125 (chain, as listed by the source, chain 2 of 2): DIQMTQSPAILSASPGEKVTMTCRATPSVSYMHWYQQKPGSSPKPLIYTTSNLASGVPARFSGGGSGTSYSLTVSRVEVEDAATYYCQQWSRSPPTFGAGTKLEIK

- % inh. binding (monoclonal antibody 16C7): 3%
- % inh. binding [1]: 7%
- % inh. binding (monoclonal antibody 7A11): 5%
- % inh. binding [2]: 7%
- IC50 (M11): 3 µg/mL
- % inh. binding (monoclonal antibody 8G9): 7%
- % inh. binding (monoclonal antibody 16H9): 0%
- % inh. binding (monoclonal antibody 7G10): 3%
- IC50 [3]: > 1000 µg/mL
- % inh. binding [4]: 2%
- percent inhibition of binding [5]: 15%
- percent inhibition of binding [6]: 17%
- percent inhibition of binding (OC125): 95%
- percent inhibition of binding [7]: 0%
- percent inhibition of binding [8]: 11%
- % inh. binding (monoclonal antibody 7F10): 6%
- % inh. binding (monoclonal antibody 15C9): 5%
- % inh. binding (monoclonal antibody 7H1): 4%
- % inh. binding [9]: 7%
- % inh. binding (monoclonal antibody 4E7): 7%
- % inh. binding [10]: 2%
- % inh. binding (monoclonal antibody 8E3): 4%
- % inh. binding (monoclonal antibody 8C3): 5%
- % inh. binding (monoclonal antibody 8A1): 8%
- % inh. binding (monoclonal antibody 8B5): 6%
- % inh. binding (monoclonal antibody 7C6): 2%
- % inh. binding [11]: 9%
Substance: shed CA 125/O772P polypeptide, Q8WXI7 1-14401

From patent publication US20050064518A1
